Laboratory results taken from a protein production outcome set (Wang et al. 2014).

Assay: label from the status in PepcDB records
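Note: failed if final PepcDB status was selected cloned or expressed and not failed if soluble or beyond.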

Row | Sequence | protein production
1 | MKMKLPLPKPSTKIAKKPQQLALLNQRLNQLSQQFKQALAQEDYQRAYECVHEVIHLVPDHRVAYMDLAYTALRLKRFDAAYQHYQKALELSEKNIDPNIYDGLTEVAYFLNQQEQVRHYGHLSLKTKQKQVASETMTALPHSAPPPISIESPEQNIIAFSLFGDQPRYCETAILNVIEARKIYPEWRCRFYVDESVPSSVLSRLQQHGAQLVLVSPEQQQISGLFWRFFVMDDPEVKRFLIRDADSLISMREREAVDEWLQSDRWFHVMRDYYSHTELILAGMWGGCTGIFHQIETSIRQYIASGRYLNERVIDQHFLRYCIWPTLQQSVITHDRYLFADNASRFPQDRDRQPDWRIQYQHVGMNESAATVSVTVNHPDAVRVKWVLLNQMKQIVCQYSAQVLSNRSIEIHLPENYVEKIRLKAWNLQIYPYEN | failed
2 | MLLILAILPIVVTVGLGVFAGLRHQFAPTTSDILIQLVMHYALPLSLFGGILSLKRATIIQNSSVALWLALGMLGGMVIVIVSQCCFHQQLETGTLRALVIASPSIPFMGVSVLLVVFGKISVLLVALGGLYMNLVQVPVSVLLLTLAGGSTPEQRWRAGWQKLCRASRQPVVWAPISAFLLNLAGLRLPSAWLTNFTELGQAAGGVALFALGLLLTTRPWRLTRMVVLNVLLKNLGLPVLIWGIMASLGVSLSNQQLVVLTLAIPTATIATMLAVQNHLAPDEYVATQMLSTVIAPLTMGFLMWGLQLV | failed
3 | MNSKAMQALIFLGFLATSCLAQAPAPAPTTVTPPPTALPPVTAETPSPIASPPVPVNEPTPAPTTSPTTSPVASPPQTDAPAPGPSAGLTPTSSPAPGPDGAADAPSAAWANKAFLVGTAVAGALYAVVLA | failed
4 | AIATDCEWFDMTWGSSASSGYCSQSDSDEHELELFYTARTSLRKSRKCRDKDEQSEVDWRKQDLSVTEIQQKVKEYNAQVNSNLFMVLNRDGSYTGFIKVQFKLARPVSLPPPRSVSSSSISSSCLGWDGGCQERTSFYLPRDTVKHLHISSSTRAREVIQALLNKFTVVDNPAKYSLYERSQRDNQVYLRKLADDECPLFLRLCAGPNEKVLSLVLKENETGEVNWDAFSFPELQNFLRILQREEEDHVRQIIRRYTLARDKMKEAMKNFSTPG | failed
5 | MSSATKSSPATGGYLHYATLAPWKTLLRTRAYPGSLAGGSEATEATVAMELAEDWLVESLRLYQDFHAFDLSGATRVLEWVGEKGVFVAGYESLKKNEILHLILPLRLSVKENQGLYPERDFKVRHGGFSDRAVFDLKHVPDTRLLVTSGLPGCYIQVWQIREDNDVIEAVSTIDVQDKEESLWPRVSIFCSAAPGILHGARLSGLRTVDVESRKITYSSDTTDSESLSSLQVLDADTFAFCGTSGRLGLVDTRQKWAPLETVSPRAGSSGERWCAEVRSKGQGPGPCIASLGSDGQLCLLDPRNLRDPVSSAQCPVFKSSPDPELLRVTWAPGLDNCLAISGFDGTVQIYDVTSWDGKKTQVEALFIHKGHIFLDGNEVESAPLVTTHTWHPSKPRTLLSAASDAALHVWDWVDLQAS | failed
6 | CSGKEALDYFKEDPQMFDMYHTGYQQQMSNWPELPVNSIINWLLSNSSSLVVADFGCGDARIAKSVKNKVFSFDLVSKNPSVIACDMSNTSLESSSVDVAVFCLSLMGTNYSSYIKEAHRVLRPSGMLLIAEVKSRFDPNNGGADPKDFVKAVCDLGFTSVLKDFSNKMFILFHFKKK | failed
7 | MATIQAFWRFSRPHTIIGTTLSVWAVYLLTILGDGNSVNSPASLDLVFGAWLACLLGNVYIVGLNQLWDVDIDRINKPNLPLANGDFSIAQGRWIVGLCGVASLAIAWGLGLWLGLTVGISLIIGTAYSVPPVRLKRFSLLAALCILTVRGIVVNLGLFLFFRIGLGYPPTLITPIWVLTLFILVFTVAIAIFKDVPDMEGDRQFKIQTLTLQIGKQNVFRGTLILLTGCYLAMAIWGLWAAMPLNTAFLIVSHLCLLALLWWRSRDVHLESKTEIASFYQFIWKLFFLEYLLYPLALWLPNFSNTIF | failed
8 | MKILQILSRLYVADLNPALEFYEELLETPVAMRFEIPQTGVELAQISTILLIAGSEEALKPFRNTQATFLVDSLDKFKTFLEENGAEIIRGPSKVPTGRNMTVRHSDGSVIEYVEHSKIE | not failed
9 | MLSRRASLAAIAIGLIAAAGAAHAQSPLGIGSAEPSFSLGGPFAPLMQWINVHQQMFYRALTGALKAMREDSWALGSLIGLSFAYGVFHAAGPGHGKAVISSYMIANETQLRRGILISFVSALIQGLMAIGLVGAAWLVLRGTSITMTKATQAMEIASFAMVALFGAWLLVRKLWSLRIRREPVPVFATAGEAPAARTNGMGTGLRFQGKPVFADHDHNGTGDLCTACGKSHAPDPMLLKGKNFSLHEAWSAIIAVGLRPCSGAIIVMSFALLNGLYLGGVLSVLAMSLGTAITVSALAIMAVSAKGLAVRFAGPGSRKAAGISHAIEIAGALFVLIMGLLLLGASLQF | failed
10 | MKESNHLMDTPYSYLIRSIGMKLKTSADARLAELGLNSQQGRMIGYIYENQESGIIQKDLAQFFGRRGASITSMLQGLEKKGYIERRIPENNARQKNIYVLPKGAALVEEFNNIFLEVEESITKGLTKDEQKQLMSILIKVNRSM | not failed
11 | MKIGIIGATGRAGSRILEEAKNRGHEVTAIVRNAGKITQTHKDINILQKDIFDLTLSDLSDQNVVVDAYGVSPDEAEKHVTSLDHLISVLNGTVSPRLLVVGGAASLQIDEDGNTLLESKGLREAPYYPTARAQAKQLEHLRSHQAEFSWTYISPSAMFEPGERTGDYQIGKDHLLFGSDGNSFISMEDYAIAVLDEIERPNHLNERFTVAGK | failed
12 | MVDQQDTFAEYFKNWYIFYKKPKVSKVTLNRYQYTYNVINEYFGNKLLKDITRANYQKFIVKYGQNHSPNTMKMINNCIKACVKNAVYDEEIKKDFTYNIELISNRLEHHHHHH | failed
13 | MITMTEVKGKTANESRVFKTSRVFPTDLNDHNTLFGGKILSEMDMVASISASRHSRKECVTASMDWVDFLHPVRSSDCVSYESFVIWTGRTSMEVFVKVVSEYLISGEKRIAATSFVTFVALSKENNPVPVPRVIPDTEEEKESHRIAVLRAEQRHIRKAESKKVATLLTF | not failed
14 | MHQQTLWLFSGIALVLIIATLISETLRWRARERPSAVLDNLVARIRAWWVMAAVVGLAFVFGRAGVIGLFALVSLFALREFITLTPTRRGDYYALLAAFYVVLPWQYGLVWTGWYGLYTLLIPVYAFLVLPILATIGGDTTRYLERTAKVQWGLMICVFCISHVPALLNLDIPGYAGRNLLLIAFLVIVVQSSDVLQYVWGKLAGRHLIAPKLSPSKTVEGFIGGVVSASLLGMALWWITPFAPWHAFGLALVANLMGFFGGLVMSAIKRDRGIKDWGHMIEGHGGVLDRLDSVCFAAPVFFHLIRYGWA | failed
15 | MSAVTESVLESIISPVTMSEFLEEYWPVKPLVARGEVERFTSIPGFEKVRTLENVLAIYNNPVMVVGDAVIEESEGITDRFLVSPAEALEWYEKGAALEFDFTDLFIPQVRRWIEKLKAELRLPAGTSSKAIVYAAKNGGGFKAHFDAYTNLIFQIQGEKTWKLAKNENVSNPMQHYDLSEAPYYPDDLQSYWKGDPPKEDLPDAEIVNLTPGTMLYLPRGLWHSTKSDQATLALNITFGQPAWLDLMLAALRKKLISDNRFRELAVNHQSLHESSKSELNGYLESLIQTLSENAETLTPEQIFQSQDSDFDPYQSTQLVFRQLLTSYKF | not failed
16 | MMQIDSIEIGGKVYQFFKSDLGNAPLLFIKGSKGYAMCGYLNMETSNKVGDIAVRVMGVKTLDDMLSAKVVEASQEAQKVGINPGDVLRNVIDKL | not failed
17 | MDGALRNRSARVVDSEHRTHPPGIRRSVCWSLLALDSRLHGRTSTQDRQVGCGRLWCRPSEARCGAMKLLVTGGGGFLGQALCRGLRARGHEVVSFQRGNYPVLRSLGVGQIRGDLADPQAVRHALAGIDAVFHNAAKAGAWGSYDSYHQANVVGTQNVIEACRATGVPRLIYTSTPSVTHRATNPVEGLGADEVPYGDNLRAAYAATKAIAERAVLAANDAQLATVALRPRLIWGPGDNHLLPRLAARARAGRLRMVGDGSNLVDSTYIDNAAQAHFDAFEHLAVGAACAGKAYFISNGEPLPMRELLNRLLAAVDAPAVTRSLPFKTAYRIGAVCETLWPLLRLPGEVPLTRFLVEQLCTPHWYSMQPARRDFGYVPRISIEEGLQRLRSSSSNDIAITG | failed
18 | MDIEDLRTFVAVADAGGVSAAARRLGISKSIVSRRLFRIEAELGVQLLARTTRGAALTEAGITFRDHAARASAEIDTARETILPAGELHGRLRIAMPLTFGPTHFAPVLAEMARQHPQLHIHTSYSDRFVDLIAEGFDCAIRGAYLQDSNLIAKRVGPIHGKLVASPAYIKAHGSPEMVEQLVNHQALMQGTEAWQFMDGDRIVTVQPQGKFKADSATALAAAAAAGLGIAWLPDCITHAYLASGALVPIMTRYPVPPGAVYVVRPPSQHPARKVRVLTEMLTEYFKRTPELWGVDG | failed
19 | MALFKRSSASAKGFDWMGLLWLFLFFWYFSGITQLLIQLTDTSGFTGFRQAFFMSAIWLAPMLLFPARTKVMAAVIGVVLWACSMASLGYFFVYQQEFSQSVIFIMFESNPSEAGEYLTQYFAWWMLLAFLAHSAFAFFLWTRLRPVYLPRGQALVAATAILVAIVGYPLVKQISRADTLAAGLEKFETRIEPAVPWQMVIAYRRYREQLDGMQGMLASASKIAPLTNLKDSMANQPATLVLVIGESTNRQRMSLYGYPRQTTPELDKLKDQLAIFNNVITPRPYTIEALQQVLTFADEENPDLYLKSPSLVSVMKQAGYKTYWITNQQTMTKRNTMLTTFSEQADEQVYLNNNRNQNARQYDGDVLEPFSKALADSAPRKFIVVHLLGTHMSYQYRYPPSFDKFNDRQGVPAGVRDDQLPTYNSYDNAVLYNDFVVSNLIKNYAKTDPNGFLLYLSDHGEDVFDSAGHDTLGRNEARPTAPMYTIPFMAWASPKWRETHDWSFASDLSRPYMSSQLIHTWADLAGLSFDELDHSRSLVSDSFKPRPLLIGDPYSRQSKPLIDFSLMKPKAPVEATVVQK | failed
20 | MFVYAYILMLLLTVLMCINLFIDSFKCPVKIRRILRGLVFLIMLRYVTLLIMCLKKSITYIYFMRPIVLLDILYIPLVILIMIFVFTRSAKFNFVYAAISGIIFFSLYIFLNFKILKTANPFYSYSFGYLIDLKSYSVVVAVVKVMVLILMLMLCGYFLRKSNIRRAGFCFLMIVILVMLVENISIIIMPKVMPEYLFGEVLLLICLNYMVRLFKK | failed
21 | MIHITSQACFLWHTTINKICNRPMFNPLTIRFWGVRGSIPCPGSHTVRYGGNTPCVEIQANGQRIILDGGTGLRVLGEHLMGQQPVTAHLFFTHTHWDHIQGFPFFQPAFVPGNQFHIYAVPGKNGQGIERRLNDQMLHPNFPVPLQIMGGDLRFYDLEVGERVHLGDGVVVSNEALNHPGGGVGYRVSWQGIHVAYITDTEHLPDRLHPGAFALADHADVMIYDATYTDEEYYHPQQSKVGWGHSTWQEAVKLAQAAQVKQLILFHHDPSHDDDCLDRIGELARAQFPQTLLAREGLIISVYPNVIHFPATPQASLEHHHHHH | failed
22 | MSNKPASQQTRLTDWLIFLAVPFFFSSNVIFGRGVVGEVSPFIAAFIRWMGSTLIIAPFMIADWRNCLAFVRDKMLLWLVLGILGMGICGGVVYWGLTMTTAANGTLIYTTSSLFIILFQRIFQGRPIRKLEVAGMVIAFAGVAAIVLKGDISALRHMNFNIGDFAILTAAIAFAIYSLLLRDPAARQMASFSLFGLIAFSGALVLLPPAALELAQGGMLPATGAAWAKIGGIILFASLLAFYCFTHTVRVFGPATAGITLYMMPPVSILMATIFLGETFETYHAIGIVLVTGGVILATAPIGRKR | failed
23 | MFFMQNTKSIYIIIPVHNRREVTLQCLTTLKLNEDLDQYRIVVVDDDSTDGTREAVNAQFPQVIVLEGDGNLWWTGAVKMGMKYAYEQGGELFILLNDDCYPQMGTISKLLKKIDENPNSVIGVQCLDPKSKEPSYGGILTNNNKLQVVKIFHTFNSMTDCDALNGNLLAIPRNIVDKVGFPDAKRFPHHFGDFVYTNRIKKEGYKLFLCNDIVALCEYHYNGLSKKSSQFNRFQELFTPTSQFYWKTEMKGYIELFGIKGIIIYLHKRCLLSSLKVIFLLLDQKLTL | failed
